Experimental data from patent publication US20250171562A1.

B1: NIgG4F5A1(G4S)1 (Fc fusion)
chain 1: DVQLQESGGGLVQPGGSLRLSCAASGSIFSIDIMGWYRQAPGKQRELVATMPEGNYINYADSVKGRLTLSRDKGKNTVYLQLNSLKPEDTAVYYCYGFGVREGRGNVYWGQGTQVTVSGGGGSGPPCPPCPAPEFLGGPSVFLFPPKPKDTLMISRTPEVTCVVVDVSQEDPEVQFNWYVDGVEVHNAKTKPREEQFNSTYRVVSVLTVLHQDWLNGKEYKCKVSNKGLPSSIEKTISKAKGQPREPQVYTLPPCQEEMTKNQVSLWCLVKGFYPSDIAVEWESNGQPENNYKTTPPVLDSDGSFFLYSRLTVDKSRWQEGNVFSCSVMHEALHNHYTQKSLSLSLGK
chain 2: EVQLLESGGGLVQPGGSLRLSCAASGFTFGNYDMAWVRQAPGKRPEWVSSIDTGGDITHYADSVKGRFTISRDNAKNTLYLQMNSLRPEDTAVYWCATDEEYALGPNEFDYYGQGTLVTVSSGGGGSGPPCPPCPAPEFLGGPSVFLFPPKPKDTLMISRTPEVTCVVVDVSQEDPEVQFNWYVDGVEVHNAKTKPREEQFNSTYRVVSVLTVLHQDWLNGKEYKCKVSNKGLPSSIEKTISKAKGQPREPQVCTLPPSQEEMTKNQVSLSCAVKGFYPSDIAVEWESNGQPENNYKTTPPVLDSDGSFFLVSRLTVDKSRWQEGNVFSCSVMHEALHNHYTQKSLSLSLGK
B2: CIgG4F4A1(G4S)1 (Fc fusion)
chain 1: GPPCPPCPAPEFLGGPSVFLFPPKPKDTLMISRTPEVTCVVVDVSQEDPEVQFNWYVDGVEVHNAKTKPREEQFNSTYRVVSVLTVLHQDWLNGKEYKCKVSNKGLPSSIEKTISKAKGQPREPQVYTLPPCQEEMTKNQVSLWCLVKGFYPSDIAVEWESNGQPENNYKTTPPVLDSDGSFFLYSRLTVDKSRWQEGNVFSCSVMHEALHNHYTQKSLSLSLGKGGGGSDVQLQESGGGLVQAGGSLRLSCAVSGLSFSSMGWFRQPPGKEREFVAAISLYSGSTYYADSVKGRFTISSDNAKSTVYLQMNSLKPEDAAVYFCAADRQRTWSTFYASRQATYNYWGQGTQVTVTS
chain 2: GPPCPPCPAPEFLGGPSVFLFPPKPKDTLMISRTPEVTCVVVDVSQEDPEVQFNWYVDGVEVHNAKTKPREEQFNSTYRVVSVLTVLHQDWLNGKEYKCKVSNKGLPSSIEKTISKAKGQPREPQVCTLPPSQEEMTKNQVSLSCAVKGFYPSDIAVEWESNGQPENNYKTTPPVLDSDGSFFLVSRLTVDKSRWQEGNVFSCSVMHEALHNHYTQKSLSLSLGKGGGGSEVQLLESGGGLVQPGGSLRLSCAASGFTFGNYDMAWVRQAPGKRPEWVSSIDTGGDITHYADSVKGRFTISRDNAKNTLYLQMNSLRPEDTAVYWCATDEEYALGPNEFDYYGQGTLVTVSS
B3: CIgG4F4A1(G4S)2 (Fc fusion)
chain 1: GPPCPPCPAPEFLGGPSVFLFPPKPKDTLMISRTPEVTCVVVDVSQEDPEVQFNWYVDGVEVHNAKTKPREEQFNSTYRVVSVLTVLHQDWLNGKEYKCKVSNKGLPSSIEKTISKAKGQPREPQVYTLPPCQEEMTKNQVSLWCLVKGFYPSDIAVEWESNGQPENNYKTTPPVLDSDGSFFLYSRLTVDKSRWQEGNVFSCSVMHEALHNHYTQKSLSLSLGKGGGGSGGGGSDVQLQESGGGLVQAGGSLRLSCAVSGLSFSSMGWFRQPPGKEREFVAAISLYSGSTYYADSVKGRFTISSDNAKSTVYLQMNSLKPEDAAVYFCAADRQRTWSTFYASRQATYNYWGQGTQVTVTS
chain 2: GPPCPPCPAPEFLGGPSVFLFPPKPKDTLMISRTPEVTCVVVDVSQEDPEVQFNWYVDGVEVHNAKTKPREEQFNSTYRVVSVLTVLHQDWLNGKEYKCKVSNKGLPSSIEKTISKAKGQPREPQVCTLPPSQEEMTKNQVSLSCAVKGFYPSDIAVEWESNGQPENNYKTTPPVLDSDGSFFLVSRLTVDKSRWQEGNVFSCSVMHEALHNHYTQKSLSLSLGKGGGGSGGGGSEVQLLESGGGLVQPGGSLRLSCAASGFTFGNYDMAWVRQAPGKRPEWVSSIDTGGDITHYADSVKGRFTISRDNAKNTLYLQMNSLRPEDTAVYWCATDEEYALGPNEFDYYGQGTLVTVSS
B4: NIgG4F5A1(RS) (Fc fusion)
chain 1: DVQLQESGGGLVQPGGSLRLSCAASGSIFSIDIMGWYRQAPGKQRELVATMPEGNYINYADSVKGRLTLSRDKGKNTVYLQLNSLKPEDTAVYYCYGFGVREGRGNVYWGQGTQVTVSRSGPPCPPCPAPEFLGGPSVFLFPPKPKDTLMISRTPEVTCVVVDVSQEDPEVQFNWYVDGVEVHNAKTKPREEQFNSTYRVVSVLTVLHQDWLNGKEYKCKVSNKGLPSSIEKTISKAKGQPREPQVYTLPPCQEEMTKNQVSLWCLVKGFYPSDIAVEWESNGQPENNYKTTPPVLDSDGSFFLYSRLTVDKSRWQEGNVFSCSVMHEALHNHYTQKSLSLSLGK
chain 2: EVQLLESGGGLVQPGGSLRLSCAASGFTFGNYDMAWVRQAPGKRPEWVSSIDTGGDITHYADSVKGRFTISRDNAKNTLYLQMNSLRPEDTAVYWCATDEEYALGPNEFDYYGQGTLVTVSSRSGPPCPPCPAPEFLGGPSVFLFPPKPKDTLMISRTPEVTCVVVDVSQEDPEVQFNWYVDGVEVHNAKTKPREEQFNSTYRVVSVLTVLHQDWLNGKEYKCKVSNKGLPSSIEKTISKAKGQPREPQVCTLPPSQEEMTKNQVSLSCAVKGFYPSDIAVEWESNGQPENNYKTTPPVLDSDGSFFLVSRLTVDKSRWQEGNVFSCSVMHEALHNHYTQKSLSLSLGK
B5: CIgG4F4A1(RS) (Fc fusion)
chain 1: GPPCPPCPAPEFLGGPSVFLFPPKPKDTLMISRTPEVTCVVVDVSQEDPEVQFNWYVDGVEVHNAKTKPREEQFNSTYRVVSVLTVLHQDWLNGKEYKCKVSNKGLPSSIEKTISKAKGQPREPQVYTLPPCQEEMTKNQVSLWCLVKGFYPSDIAVEWESNGQPENNYKTTPPVLDSDGSFFLYSRLTVDKSRWQEGNVFSCSVMHEALHNHYTQKSLSLSLGKRSDVQLQESGGGLVQAGGSLRLSCAVSGLSFSSMGWFRQPPGKEREFVAAISLYSGSTYYADSVKGRFTISSDNAKSTVYLQMNSLKPEDAAVYFCAADRQRTWSTFYASRQATYNYWGQGTQVTVTS
chain 2: GPPCPPCPAPEFLGGPSVFLFPPKPKDTLMISRTPEVTCVVVDVSQEDPEVQFNWYVDGVEVHNAKTKPREEQFNSTYRVVSVLTVLHQDWLNGKEYKCKVSNKGLPSSIEKTISKAKGQPREPQVCTLPPSQEEMTKNQVSLSCAVKGFYPSDIAVEWESNGQPENNYKTTPPVLDSDGSFFLVSRLTVDKSRWQEGNVFSCSVMHEALHNHYTQKSLSLSLGKRSEVQLLESGGGLVQPGGSLRLSCAASGFTFGNYDMAWVRQAPGKRPEWVSSIDTGGDITHYADSVKGRFTISRDNAKNTLYLQMNSLRPEDTAVYWCATDEEYALGPNEFDYYGQGTLVTVSS
B6: CIgG4F4A1(G4S)3 (Fc fusion)
chain 1: GPPCPPCPAPEFLGGPSVFLFPPKPKDTLMISRTPEVTCVVVDVSQEDPEVQFNWYVDGVEVHNAKTKPREEQFNSTYRVVSVLTVLHQDWLNGKEYKCKVSNKGLPSSIEKTISKAKGQPREPQVYTLPPCQEEMTKNQVSLWCLVKGFYPSDIAVEWESNGQPENNYKTTPPVLDSDGSFFLYSRLTVDKSRWQEGNVFSCSVMHEALHNHYTQKSLSLSLGKGGGGSGGGGSGGGGSDVQLQESGGGLVQAGGSLRLSCAVSGLSFSSMGWFRQPPGKEREFVAAISLYSGSTYYADSVKGRFTISSDNAKSTVYLQMNSLKPEDAAVYFCAADRQRTWSTFYASRQATYNYWGQGTQVTVTS
chain 2: GPPCPPCPAPEFLGGPSVFLFPPKPKDTLMISRTPEVTCVVVDVSQEDPEVQFNWYVDGVEVHNAKTKPREEQFNSTYRVVSVLTVLHQDWLNGKEYKCKVSNKGLPSSIEKTISKAKGQPREPQVCTLPPSQEEMTKNQVSLSCAVKGFYPSDIAVEWESNGQPENNYKTTPPVLDSDGSFFLVSRLTVDKSRWQEGNVFSCSVMHEALHNHYTQKSLSLSLGKGGGGSGGGGSGGGGSEVQLLESGGGLVQPGGSLRLSCAASGFTFGNYDMAWVRQAPGKRPEWVSSIDTGGDITHYADSVKGRFTISRDNAKNTLYLQMNSLRPEDTAVYWCATDEEYALGPNEFDYYGQGTLVTVSS

biological target: mixture of three Der p 2 specific recombinant human IgE clones H10, H12, P4E (human) (UniProt P01854); test: RBL-SX38 IgE displacement, FACS
Sequence (P01854 other isoform, or with tags, fused parts or gaps): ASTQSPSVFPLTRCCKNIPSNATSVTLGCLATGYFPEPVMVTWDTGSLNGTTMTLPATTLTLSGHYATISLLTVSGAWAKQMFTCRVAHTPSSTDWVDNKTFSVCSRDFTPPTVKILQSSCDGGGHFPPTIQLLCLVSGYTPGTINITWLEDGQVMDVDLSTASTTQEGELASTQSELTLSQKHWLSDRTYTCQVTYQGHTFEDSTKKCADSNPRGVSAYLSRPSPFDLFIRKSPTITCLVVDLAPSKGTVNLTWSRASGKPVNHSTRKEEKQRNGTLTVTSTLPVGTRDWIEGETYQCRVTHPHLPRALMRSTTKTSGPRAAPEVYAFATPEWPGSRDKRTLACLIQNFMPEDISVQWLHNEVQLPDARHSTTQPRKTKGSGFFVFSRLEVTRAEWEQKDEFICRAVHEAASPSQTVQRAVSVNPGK

Which EC50 does the source give for B1 here?
The EC50 was 28.9 nM.

And the Max effect/effect 1 µM?
Its Max effect/effect 1 µM is 67%.

Which EC50 does the source give for B2 here?
The EC50 was 0.9 nM.

What about the Max effect/effect 1 µM of the same binder?
The Max effect/effect 1 µM was 100%.

Which results are given for B3?
EC50: 0.9 nM; Max effect/effect 1 µM: 100%

Which EC50 does the source give for B4 here?
Its EC50 is 0.7 nM.

And the Max effect/effect 1 µM?
The Max effect/effect 1 µM was 99%.

Which EC50 does the source give for B5 here?
Its EC50 is 1.2 nM.

And the Max effect/effect 1 µM?
The Max effect/effect 1 µM was 99%.

With B6 as the binder, how does the EC50 read?
The EC50 was 1.2 nM.

And the Max effect/effect 1 µM?
The Max effect/effect 1 µM was 97%.
